Experimental data reported in the Immune Epitope Database (IEDB).

Experiments:
HLA-B*07:02 [1] = test: IEDB peptide-MHC binding, purified MHC/competitive/fluorescence; ≥ and ≤ were set here for values at or beyond the usual limits of such assays
HLA-A*24:02 = test: as above; conditions: source organism: Zaire ebolavirus
HLA-C*07:02 = test: IEDB peptide-MHC binding, purified MHC/direct/fluorescence; filed as Kd, often an IC50 or EC50 that approximates it; ≥ and ≤ were set here for values at or beyond the usual limits of such assays
HLA-B*08:01 = test: IEDB peptide-MHC binding, purified MHC/competitive/fluorescence; ≥ and ≤ were set here for values at or beyond the usual limits of such assays
HLA-B*15:17 [2] = test: IEDB peptide-MHC binding, purified MHC/direct/fluorescence; filed as Kd, often an IC50 or EC50 that approximates it; ≥ and ≤ were set here for values at or beyond the usual limits of such assays; conditions: source organism: Salmonella enterica subsp. enterica serovar Typhimurium
HLA-B*57:01 [3] = test: as above; conditions: source organism: Salmonella enterica
HLA-B*58:01 = test: as above
HLA-C*15:02 = test: as above
HLA-A*02:19 [4] = test: IEDB peptide-MHC binding, purified MHC/competitive/fluorescence; filed as Kd, often an IC50 or EC50 that approximates it; ≥ and ≤ were set here for values at or beyond the usual limits of such assays; conditions: source organism: Toxoplasma gondii RH
HLA-A*02:01 [5] = test: as above
HLA-A*33:01 = test: IEDB peptide-MHC binding, purified MHC/competitive/radioactivity; filed as Kd, often an IC50 or EC50 that approximates it; ≥ and ≤ were set here for values at or beyond the usual limits of such assays; conditions: source organism: Vaccinia virus WR
HLA-A*31:01 = test: as above; conditions: source organism: Vaccinia virus WR
HLA-A*11:01 = test: as above; conditions: source organism: Vaccinia virus WR
HLA-B*07:02 [6] = test: as above; conditions: source organism: Vaccinia virus WR
HLA-A*68:01 = test: as above; conditions: source organism: Vaccinia virus WR
HLA-B*51:01 [7] = test: as above; conditions: source organism: Vaccinia virus WR
HLA-B*54:01 = test: as above; conditions: source organism: Vaccinia virus WR
HLA-B*35:01 = test: as above; conditions: source organism: Vaccinia virus WR
HLA-B*53:01 = test: as above; conditions: source organism: Vaccinia virus WR
HLA-A*03:01 [8] = test: as above; conditions: source organism: Vaccinia virus WR
HLA-C*12:03 = test: IEDB peptide-MHC binding, purified MHC/direct/fluorescence; filed as Kd, often an IC50 or EC50 that approximates it; ≥ and ≤ were set here for values at or beyond the usual limits of such assays
HLA-B*15:17 [9] = test: IEDB peptide-MHC binding, purified MHC/competitive/fluorescence; filed as Kd, often an IC50 or EC50 that approximates it; ≥ and ≤ were set here for values at or beyond the usual limits of such assays; conditions: source organism: Zaire ebolavirus
HLA-B*15:01 [10] = test: as above; conditions: source organism: Zaire ebolavirus
HLA-B*51:01 [11] = test: as above; conditions: source organism: Zaire ebolavirus
HLA-A*26:01 = test: as above; conditions: source organism: Zaire ebolavirus
HLA-A*69:01 = test: as above; conditions: source organism: Zaire ebolavirus
HLA-B*27:03 = test: as above; conditions: source organism: Zaire ebolavirus
HLA-B*57:01 [12] = test: as above; conditions: source organism: Zaire ebolavirus
HLA-B*39:01 = test: as above
HLA-B*46:01 = test: as above; conditions: source organism: Zaire ebolavirus
HLA-A*02:11 = test: IEDB peptide-MHC binding, purified MHC/direct/fluorescence; filed as Kd, often an IC50 or EC50 that approximates it; ≥ and ≤ were set here for values at or beyond the usual limits of such assays; conditions: source organism: Zaire ebolavirus
HLA-A*02:12 = test: as above; conditions: source organism: Zaire ebolavirus
HLA-A*29:02 = test: as above; conditions: source organism: Zaire ebolavirus
HLA-A*68:02 = test: as above; conditions: source organism: Zaire ebolavirus
HLA-A*02:19 [13] = test: as above; conditions: source organism: Zaire ebolavirus
HLA-A*23:01 = test: as above; conditions: source organism: Zaire ebolavirus
HLA-B*40:01 = test: as above; conditions: source organism: Sudan ebolavirus - Maleo (1979)
HLA-A*24:03 = test: as above; conditions: source organism: Zaire ebolavirus
HLA-A*02:16 = test: as above; conditions: source organism: Zaire ebolavirus
HLA-A*03:01 [14] = test: as above; conditions: source organism: Zaire ebolavirus
HLA-A*02:03 = test: as above; conditions: source organism: Zaire ebolavirus
HLA-A*02:01 [15] = test: IEDB peptide-MHC binding, purified MHC/competitive/fluorescence; ≥ and ≤ were set here for values at or beyond the usual limits of such assays; conditions: source organism: Vaccinia virus Copenhagen
HLA-B*18:01 = test: IEDB peptide-MHC binding, purified MHC/competitive/fluorescence; filed as Kd, often an IC50 or EC50 that approximates it; ≥ and ≤ were set here for values at or beyond the usual limits of such assays; conditions: source organism: Zaire ebolavirus
HLA-B*15:01 [16] = test: IEDB peptide-MHC binding, purified MHC/direct/fluorescence; filed as Kd, often an IC50 or EC50 that approximates it; ≥ and ≤ were set here for values at or beyond the usual limits of such assays; conditions: source organism: Reston ebolavirus - Reston
[17] = source organism: Zaire ebolavirus
[18] = source organism: Vaccinia virus Copenhagen
[19] = source organism: Bacillus anthracis str. A2012
[20] = source organism: Vaccinia virus L-IPV
[21] = source organism: Bacillus anthracis str. A0488

YPTAWQSVG gave an IC50 (HLA-B*07:02 [1]; [17]) of at least 174 µM and an IC50 (HLA-A*24:02) of at least 209 µM.
With ALPPRAFEL the Kd (HLA-C*07:02; source organism: Mycobacterium tuberculosis F11) was 0.085 µM.
SLSKRERQL gave an IC50 (HLA-B*07:02 [1]; [18]) of 57.5 µM and an IC50 (HLA-B*08:01; [18]) of at least 76.3 µM.
Sequence TTHHTIPLL has a Kd (HLA-B*15:17 [2]) of 0.0659 µM, a Kd (HLA-B*57:01 [3]) of 4 µM and a Kd (HLA-B*58:01; source organism: Salmonella enterica subsp. enterica serovar Typhimurium) of 3.24 µM. For the same sequence, the Kd (HLA-C*15:02; source organism: Salmonella enterica subsp. enterica serovar Typhi str. CT18) was at least 20 µM.
QPEWFRNIL showed an IC50 (HLA-B*07:02 [1]; source organism: Influenza A virus (A/Oklahoma/309/2006(H3N2))) of 0.188 µM.
Work on SIFERIREA yielded a Kd (HLA-A*02:19 [4]) of 1.15 µM and a Kd (HLA-A*02:01 [5]; source organism: Toxoplasma gondii RH) of 0.002 µM.
FEEMYRHIL showed an IC50 (HLA-A*24:02) of 25.8 µM and an IC50 (HLA-B*08:01; [17]) of at least 81.4 µM.
Sequence FLIYFRSPL has a Kd (HLA-A*02:01 [5]; [19]) of 0.0106 µM and a Kd (HLA-C*07:02; [19]) of 1.44 µM.
In the case of TINDLKMML, the Kd (HLA-C*15:02; [18]) is reported as 0.043 µM.
Work on RLYDYFTRV yielded a Kd (HLA-A*02:01 [5]; [20]) of 0.0039 µM, a Kd (HLA-A*33:01) of at least 77.7 µM and a Kd (HLA-A*31:01) of 0.411 µM. The Kd (HLA-A*11:01) was 0.155 µM, the Kd (HLA-B*07:02 [6]) was 16.8 µM and the Kd (HLA-A*68:01) was at least 77.7 µM. The Kd (HLA-B*51:01 [7]) was at least 77.5 µM, the Kd (HLA-B*54:01) was at least 60.7 µM and the Kd (HLA-B*35:01) was at least 31.5 µM. For the same sequence, the Kd (HLA-B*53:01) was at least 78.2 µM, the Kd (HLA-A*03:01 [8]) was at least 59.3 µM and the Kd (HLA-C*12:03; [20]) was 0.932 µM.
NFHQKKNEI showed an IC50 (HLA-A*24:02) of 8.08 µM and an IC50 (HLA-B*08:01; [17]) of 66.1 µM.
With SPRMLTPIN the IC50 (HLA-B*07:02 [1]; [17]) was 5.08 µM.
DETFVHSGF showed a Kd (HLA-B*15:17 [9]) of at least 20 µM, a Kd (HLA-B*15:01 [10]) of at least 20 µM and a Kd (HLA-B*51:01 [11]) of at least 20 µM. For the same sequence, the Kd (HLA-A*26:01) was at least 20 µM, the Kd (HLA-A*69:01) was at least 20 µM and the Kd (HLA-B*27:03) was at least 20 µM. It also gave a Kd (HLA-B*57:01 [12]) of at least 20 µM, a Kd (HLA-B*39:01; [17]) of at least 20 µM and a Kd (HLA-B*46:01) of at least 20 µM. The Kd (HLA-A*02:01 [5]; [17]) was at least 20 µM, the Kd (HLA-A*02:11) was at least 20 µM and the Kd (HLA-A*02:12) was at least 20 µM. For the same sequence, the Kd (HLA-A*29:02) was at least 20 µM, the Kd (HLA-A*68:02) was at least 20 µM and the Kd (HLA-A*02:19 [13]) was at least 20 µM. The Kd (HLA-A*23:01) was at least 20 µM, the Kd (HLA-B*40:01) was at least 20 µM and the Kd (HLA-A*24:03) was at least 20 µM. It also gave a Kd (HLA-A*02:16) of at least 20 µM, a Kd (HLA-A*03:01 [14]) of at least 20 µM and a Kd (HLA-A*02:03) of at least 20 µM.
DSRPQKIWM showed an IC50 (HLA-B*08:01; [17]) of at least 95.4 µM.
Work on FRMTENVPL yielded a Kd (HLA-B*39:01; [21]) of 0.0017 µM and a Kd (HLA-C*07:02; [21]) of 0.048 µM.
For VAANIVLTV, the Kd (HLA-A*02:01 [5]; source organism: Homo sapiens) was 0.0145 µM and the Kd (HLA-C*12:03; source organism: Callithrix jacchus) was at most 0.001 µM.
With VSARIAALF the Kd (HLA-B*58:01; source organism: Mycobacterium tuberculosis) was 0.036 µM and the Kd (HLA-C*15:02; source organism: Mycobacterium tuberculosis H37Rv) was 3.14 µM.
Sequence FALKKLIID has an IC50 (HLA-B*08:01; [18]) of at least 211 µM and an IC50 (HLA-A*02:01 [15]) of at least 161 µM.
WQQWDRQSL showed a Kd (HLA-B*15:17 [9]) of at least 20 µM, a Kd (HLA-B*18:01) of at least 20 µM and a Kd (HLA-B*51:01 [11]) of at least 20 µM. It also gave a Kd (HLA-A*26:01) of at least 20 µM, a Kd (HLA-A*69:01) of at least 20 µM and a Kd (HLA-B*27:03) of at least 20 µM. For the same sequence, the Kd (HLA-B*57:01 [12]) was at least 20 µM, the Kd (HLA-B*46:01) was at least 20 µM and the Kd (HLA-A*02:01 [5]; [17]) was at least 20 µM. The Kd (HLA-A*02:11) was at least 20 µM, the Kd (HLA-B*15:01 [16]) was 0.127 µM and the Kd (HLA-A*02:12) was at least 20 µM. It also gave a Kd (HLA-A*29:02) of at least 20 µM, a Kd (HLA-A*68:02) of at least 20 µM and a Kd (HLA-A*02:19 [13]) of at least 20 µM. For the same sequence, the Kd (HLA-A*23:01) was at least 20 µM, the Kd (HLA-A*24:03) was at least 20 µM and the Kd (HLA-A*02:16) was at least 20 µM. The Kd (HLA-A*03:01 [14]) was at least 20 µM and the Kd (HLA-A*02:03) was at least 20 µM.
Work on YRSMIAFKL yielded a Kd (HLA-C*07:02; source organism: Entamoeba histolytica HM-1:IMSS) of 0.045 µM.
